The target in test [1] is Human FcRn Protein, His Tag (ACRO Biosystems, Cat.No.FCN-H52W7) (human) (UniProt P55899). Briefly: competition ELISA against Biotin-IgG on FcRn-His, relative to the reference antibody (SEQ ID NO: 180/181). Background: ELISA stands for enzyme-linked immunosorbent assay.
For test [2], the target named is T1, 人FcRn胞外区-β2M复合物(带His标签的重组蛋白) (human, UniProt P61769 21-119).
T1 construct: also called FcRn抗原; 人FcRn-β2M复合物; not shown: His tag
The experiment in a line: hybridoma screening: binding ELISA, cell binding and cell blocking.

Chain of UniProt P55899 (P55899 24-297 limits assumed, chain 1 of 2): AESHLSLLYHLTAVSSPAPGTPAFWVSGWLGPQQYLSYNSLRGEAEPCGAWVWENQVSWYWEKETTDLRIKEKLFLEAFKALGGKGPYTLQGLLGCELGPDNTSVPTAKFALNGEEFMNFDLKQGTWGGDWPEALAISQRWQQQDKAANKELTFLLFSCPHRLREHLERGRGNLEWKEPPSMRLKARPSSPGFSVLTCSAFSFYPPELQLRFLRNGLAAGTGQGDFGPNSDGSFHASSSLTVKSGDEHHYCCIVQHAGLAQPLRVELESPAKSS
Chain of UniProt P55899 (P61769 21-119 limits assumed, chain 2 of 2, further chain): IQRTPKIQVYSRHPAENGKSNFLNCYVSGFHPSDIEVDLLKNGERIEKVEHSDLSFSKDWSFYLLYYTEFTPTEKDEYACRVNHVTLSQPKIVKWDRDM
T1 sequence (chain, as listed by the source limits assumed, chain 1 of 2): as the sequence (P55899 24-297 limits assumed, chain 1 of 2) above
T1 sequence (P61769 21-119 limits assumed, chain 2 of 2): as the sequence (P61769 21-119 limits assumed, chain 2 of 2, further chain) above

As for “不针对FcRn靶点的无关抗体(IgG4亚型，迈晋生物自制) (antibody)”, the 生物学活性(相对参考品) in test [1] was determined as 0%.

B1: hybri11 (antibody, V domains shown)
VH: QVQLQQPGAELVKPGASVKVSCKASGSTFTSYYMHWVKQRPGQGLEWIGRIHPSNSDSNYNQKFKGKATLTVDKSSSTAYMQLSSLTSEDSAVYYCAMKRDGYYEGFPHWGQGTLVTVSA
VL: DIQMTQSPASQSASLGESVTITCLASQTIGTWLAWYQQKPGKSPQLLIYAATSLADGVPSRFSGSRSGTKFSFKISSLQAEDFVSYYCQQLYSTPYTFGGGTKLEIK
notes: Mouse hybridoma antibody; tested as hybridoma supernatant/purified antibody; also called 阳性克隆hybri11
As to B1, the binding result in test [2] is recorded as “binds”.

The record behind these values is patent CN113484526A (SHANGHAI MABGEN MEDICINE TECH CO LTD, dated 2021).
